Experimental data as given in the RNAGym collection of RNA variant scans (doi:10.1073/pnas.2313332121).
Fewer inactive variants are shown than the library holds.

B1: TPR 5TU (parent)
chain: GGAUCUUCUCGAUCUAACAAAAAAGACAAAUCUGCCACAAAGCUUGAGAGCAUCUUCGGAUGCAGAGGCGGCAGCCUUCGGUGGCGCGAUAGCGCCAACGUUCUCAACUAUGACACGCAAAACGCGUGCUCCGUUGAAUGGAGUUUAUCAUG

Variants of: B1
Experiment: polymerase ribozyme fitness, log enrichment relative to wild type (log ratio); higher = more active; in vitro selection for triplet polymerase activity
Procedure, shortened: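 Fitness compares each genotype's enrichment to that of the wild type on a logarithmic scale, averaging replicates with inverse-variance weights. The logarithm is base 2. Enrichment came from Illumina sequencing of input and output libraries after one triplicate round of in vitro selection, which included frozen incubation at −7 °C, of PCR-built, transcribed mutant libraries of each subunit of a heterodimeric triplet polymerase ribozyme. Only genotypes with ≥10 input reads and ≥1 read per output were kept.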

Point of comparison: GGAUCUUCUCUAUCUAACAAAAAAGACAAAUCUGCCACAAAGCUUGAGAGCAACUUCGGAUGCAGAGGCGGCAGCCUUCGGUGGCGCGAUAGCGCCAACGUUCUCAACUAUGACACGCAAAACGCGUGCUCUGUUGAAUGGAGUUGAUCAUG [G11U U53A C132U U146G], “polymerase ribozyme fitness (log ratio)” value -3.51. Against it:
- GGAUCUUCUCUAUCUAACAAAAAAGACAAAUCUGCCACAAAGCUUGAGAGCAUCUUCGGAUGCAGAGGCGGCAGCCUUCGGUGACGCGAUAGCGCCAACGUUCUCAACUAUGACACGCAAAACGCGUGCUCCGUUGAAUGGAGUUUAUCAUG [G11U G84A] — higher, -0.536
- GGAUCUUCUCGCUCUAACAUAAAAGACAAAUCUGCCACAAAGCUUGAGAGCAUCUUCGGAUGCAGAGGCGGCAGCCUUUGGUGUCGCGAUAGCGCCAACGUUCUCAACUAUGACACGCAAAACGCGUGCUCCGUUGAAUGGAGUUUAUCAUG [A12C A20U C79U G84U] — lower, ≤ -4.2
- GGAUCUUCUCUAUCUAACAAAAAAGACAAAUCUGCCACAAAACUUGAGAACAUAUUCGGAUGCAGAGGCGGCAGCCUUCGGUGGCGCGAUAGCGUCAACGUUCUCAACUAUGACACGCAAAACACGUGCUCCGUUGAAUGGAGUUUAUCAUG [G11U G42A G50A C54A C95U G124A] — lower, ≤ -4.2
- GGAUCUUCUCGCUCUGACAAAAAAGACAAAUCUGCCACUAAGCUUGAGAGCAUCUUCGGAUGCAGAGGCGGCAGCCUUCGGUGGCGCGAUCGCGCCAACGUUCUCAACUAUGACACGCAAAACGCGUGCUCCGUUGAAUGCAGUUUAGCAUG [A12C A16G A39U A91C G141C U148G] — lower, ≤ -4.2
- GGAUCUUCUCUAUCUAACAAAAAAGACAAAUCUGCCACAAACCUUGAGAGCAUCUUCGGAUGCAGAGACGGCAGCCUUCGGUGGUGCGAUAGCGCCAACGUUCUCAACUAUGACACGCAAAACGCGUUCUCGGUUGAAGGGAGUUUAACAUG [G11U G42C G68A C85U G128U C132G U139G U148A] — lower, ≤ -4.2
- GGAUCUUCUCUAGCUAACAAAAAAGACAAAUCUGCCACAAAGCUUGAGAGCAUCUUCGGAUUCAGAGGUGGCAGCCUUCGAUGGCGUGAUAGCGCCAACGUUCUCAACUAUGACACGCAAAACGCGUGCUCCGUUGAAUGGAGUUUAUCAUG [G11U U13G G62U C69U G81A C87U] — lower, ≤ -4.2
- GGAUCUUCUCUAUCUAACAAAAAAGACAAAUCUGCCACAAACCUUGCGAGCAUCUUCGGAUGCAGAGGCGGCAACCUUCGGUGGCGCGAUAGCGCGAACGUUCUUAACUAUGACACGCAAAACGCGUGCUCCGUUGAAUAGAGUUUAUCAUG [G11U G42C A47C G74A C96G C105U G140A] — lower, ≤ -4.2
- GGAUCUUCUCUAUCUAACAAAAAAGACAAAUCUGCCACAAAGCUUGAGAGCAUCUUCGGAUGCAGAGGCGGCAGCCUUCGGUGGCGCGAUAGGGCCAACGUUCUCAACUAUGACACGCAAAACGCGUGCUCCGUUGAAUGGAGUUUAUCAUG [G11U C93G] — lower, -3.88
- GGAUCUUCUCGCUCUAACACAAAAGGCAAAUCUGCCACAAAGCUUGAGAGCAUCUUCGGAUGCAGAGGCGGCAGCCUUCGGUGGCGCGAUAGCGCCAACGUUCUCAACUAUGACACGCAAAACGCGUGCUCCGUUGAAUGGAGUUUAUCAUG [A12C A20C A26G] — lower, ≤ -4.2
- GGAUCUUCUCUAUCUAACAAAAAAGACAAAUCUGCCACAAAGCUUGAGAGCAUCUUCGGAUGCAGAGGCGGCAGCCUUCGGUGACGCGACAGCGCCAACGUUCUCAACUAUGACACGCGAAACGAGUGCUCCGUUGAAUGGAGUUUAUCAUG [G11U G84A U90C A119G C125A] — lower, ≤ -4.2
- GGAUCUUCUCGCUCUAACAACACAGACAAAUCUGCCACAAAGCUUGAGAGCAUCUUCGGAUGCAGAGGCGGCAGCCUUCGGUGGCGCGAUAGCGCCAACGUUCUCAACUAUGACACGCAAAACGCGUGCUCCGUUAAAUGGAGUUUAUCAUG [A12C A21C A23C G136A] — lower, ≤ -4.2
- GGAUCUUCUCGCUCUCACAAAAAAGACAAACGUGCCACAAAGCUUGAGAGCAACUUCGGAUGCAGAGGCGGCAGCCUUCGGUGGCGCGAUAGGGCCAACGUUCUCAACUAUGACACGGAAAACGCGUGCUCCGUUGAAUGGAGUUUAUCACG [A12C A16C U31C C32G U53A C93G C118G U151C] — lower, ≤ -4.2
- GGAUCUUCUCUAUCUAACAAAAAAGACAAAUCUGCCACAAAGCUUGAGAUCAUCUUCGGAUGCAGAGACGGCAGCCUUCGGUGUCGCGAUAGCGCCAACGUUCUCAACUAUGAUUCGCAAAACGCGUGCUCCGUUAAAUGGAGUUUAUCAUG [G11U G50U G68A G84U C114U A115U G136A] — lower, ≤ -4.2
- GGAUCUUCUCGCUCUUACAAAAAAGACAAAUCUGCCACAAAGCUUGAGAGCAUCUUCGGAUGCAGAGGCGGCAGCCUUCGGUGGCGCGAUAGCGCCAACGUUCUCAACUAUGACACGCAAAACGCGUGCUCCGUUGAAUGGAGUGUAUCAUG [A12C A16U U145G] — higher, -2.26
- GGAUCUUCUCUAUCUAACAAAAAAGACAAAUCUGCCACAAAGCUUGAGAGCAUCUUCGGAUGCAGAGGCGGCAGCCUUCGGUGGCGCGAUAGCGCCAACGUUCGCAACUAUGACACGCAAAACGCGUGCUCCGUUGAAUGGAGUUUAUCAUG [G11U U104G] — higher, -1.58
- GGAUCUUCUCUAUCUAACAAAAAAGACAAAUCUGCCACAAAGCUUGAGAGCAUCUUCGGAAGCAGAGGCGGCAGCCUUCGGUGGCGUGAUAGCGCCAACGUUCUCAACUAUGACACGCAAAACGCGUGCUCCGUUGAAUGGAGUUUAUCAUG [G11U U61A C87U] — lower, -3.78
- GGAUCUUCUCUAUCUAACAAAAAAGACAAAUCUGCCACAAAUCUUGAGAGCAUCUUCGGAUGCAGAGACGGCAGCCUUCGGUGGCUCGAUAGCGGCAACGUUCUCAACUAUGACACGCAAAACGCGUGCUCCGUUGCAUGGAGUUUAUCAUG [G11U G42U G68A G86U C95G A137C] — lower, ≤ -4.2
- GGAUCUUCUCUAUCUAACAAAAAACACAAAUUUGCCACAAAGCUUGAGACCAUCUUCGGGUGCAGAGGCGGCAGCCUUCGGUGGCGCGAUAGCGUCAACGUUCUCAACUAUGACACGCAAAACGCGUGCUCCGUUGAAUGGAGUUUAUCAUG [G11U G25C C32U G50C A60G C95U] — lower, ≤ -4.2
